Experimental data: US20250042994A1 (HAINAN SIMCERE ZAIMING PHARMACEUTICAL, published 2025)

T1: human CD19 exon1-3-his protein (human, UniProt P15391 20-186, limits assumed)
T1 construct: made in HEK293E cells; also called membrane-distal end; not shown: His tag
T1 sequence (looked up): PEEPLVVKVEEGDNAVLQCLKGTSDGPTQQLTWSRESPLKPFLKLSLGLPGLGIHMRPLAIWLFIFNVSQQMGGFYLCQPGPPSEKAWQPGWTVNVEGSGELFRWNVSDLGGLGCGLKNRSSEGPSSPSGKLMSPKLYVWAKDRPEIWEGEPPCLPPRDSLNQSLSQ

T2: murine CD19 protein (murine, UniProt P25918 17-287, limits assumed)
T2 construct: bought protein; also called commercial murine CD19
T2 sequence (looked up): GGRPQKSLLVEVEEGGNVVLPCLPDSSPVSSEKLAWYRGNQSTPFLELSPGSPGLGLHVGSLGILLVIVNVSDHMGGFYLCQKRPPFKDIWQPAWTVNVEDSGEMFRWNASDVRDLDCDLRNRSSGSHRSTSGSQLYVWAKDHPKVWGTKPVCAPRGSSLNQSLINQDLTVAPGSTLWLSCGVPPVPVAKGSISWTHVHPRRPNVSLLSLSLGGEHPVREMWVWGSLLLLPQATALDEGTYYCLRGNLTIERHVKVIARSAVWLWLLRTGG

T3: Human CD19-his protein (human, UniProt P15391 20-291)
T3 construct: bought protein; also called human CD19 protein; recombinant human CD19-His; not shown: His tag
T3 sequence (looked up): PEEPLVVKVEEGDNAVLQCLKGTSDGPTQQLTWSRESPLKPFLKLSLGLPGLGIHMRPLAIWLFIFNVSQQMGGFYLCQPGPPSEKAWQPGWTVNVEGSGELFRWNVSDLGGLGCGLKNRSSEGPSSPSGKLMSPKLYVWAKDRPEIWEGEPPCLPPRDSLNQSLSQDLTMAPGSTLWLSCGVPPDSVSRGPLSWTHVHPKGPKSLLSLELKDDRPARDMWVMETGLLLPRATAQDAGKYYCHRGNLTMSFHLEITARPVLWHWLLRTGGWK

B1: F4.21.2 (antibody, human IgG1, V domains shown)
VH: QVQLKQSGPGLVQPSQSLSITCTVSGFSLSTYGVHWVRQSPGRGLEWLGVIWIGGTTDYNAAFISRLTISKDNSRGQVFFKMDSLQANDTAIYYCARKGYYKYDGGYYYAMDYWGQGTSVTVSS
VL: DIQMTQSSSYLSVSLGGRVTITCKASDHINNWLAWYQQKPGNAPWLLISGATSLETGVPSRFSGSGSGKDYTLSISSLQTEDVATYYCQQYWSTPLTFGAGTKLELK
notes: human-murine chimeric antibody, human IgG1
B2: F4.22.6 (antibody, human IgG1, V domains shown)
VH: QVQLQQSGPELVKPGASVKISCKASGYAFSSFWMNWVKQRPGQGLEWIGRIYPGDGDTNYNGKFKGKATLTADKSSTTAYMHLSSLTSVDSAVYFCTRSVITAVVDWYFDVWGAGTTVTVSS
VL: QIVLSQSPAILSASPGEKVTLTCRASSSVNFMHWYQQKPGSSPKPWIYATSNLASGAPARFSGSGSGTSYSLTISRVEAEDAAAYYCQQWSSYPIFTFGSGTKLEIK
notes: as for B1
B3: F3.133.14 (antibody, human IgG1, V domains shown)
VH: QVQLQQPGAELVMPGASVKLSCKASGYTFTNYWMHWVKQRPGQGLEWIGEIDPSDYYANYNQKFKGKATLTVDKSSSTAYMQLSSLTSEDSAVYYCARSHYYANSYNYWGQGTTLTVSS
VL: EIELTQSPTTMAASPGEKITITCSASSSISSDYLHWYQQKPGFSPKLLIYRTSNLASGLPARFSGSGSGTSYSLTIGTMEAEDVATYYCQQGSSVPRMLTFGAGTKLELK
notes: as for B1
B4: F4.33.12 (antibody, human IgG1, V domains shown)
VH: QVQLQQSGAELVRPGSSVKISCKGSGYAFSSYWMNWVKQRPGQGLEWIGQIYPGDGDTNYNGKFKGKATLTADKSSSTAYMQLSSLTSEDSAVYFCARAGFYYGSDSSMDYWGQGTSVTVSS
VL: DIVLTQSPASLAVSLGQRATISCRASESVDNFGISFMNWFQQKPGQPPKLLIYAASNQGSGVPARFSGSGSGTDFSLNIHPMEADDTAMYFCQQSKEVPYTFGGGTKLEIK
notes: as for B1
B5: F4.48.12 (antibody, human IgG1, V domains shown)
VH: QMQLKESGPGLVAPSQSLSITCTVSGFSLTDYGVSWIRQPPGKGLEWLGVIWGSGSTFYNSALTSRLSISKDNSKSQVFLKMNSLQTADTAMYFCAKHHYYGGSFAMDYWGQGTSVTVSS
VL: DIQMTQASSSLSASLGDRVTISCKTSQDISNYLNWYQQKPDGTFKLLIHYTSRLHSGVPSRFSGSGSGSDYSLTISNLEREDIATYFCQQGNSLPYTFGGGTKLEMK
notes: as for B1
B6: F4.41.1 (antibody, human IgG1, V domains shown)
VH: QVQLQQSGAELVRPGTSVKVSCKASGYAFTNYLIEWVKQRPGQGLEWIGVINPGSGDTLYNEKFKGKATLTADKSSTTAYMQLSGLTSDVSAIYFCARSPPITTIVADYFDYWGQGTTLTVSS
VL: DIQMTQTTSSLSASLGDRVTISCRASQDISNYLNWYQQKPDGTVKLLIYYTSRLHSGVPSRFSGSGSGADYSLTISNLEQEDIATYFCQQGKTLPYTFGGGTKLEIK
notes: as for B1

The binders below were run against T1, human CD19 exon1-3-his protein (assay: ELISA, coated at 2 ug/mL).

| Binder | binding result |
| --- | --- |
| B1 | no binding |
| B2 | no binding |
| B3 | no binding |
| B4 | no binding |
| B5 | no binding |
| B6 | no binding |

What follows are binders tested against T2, murine CD19 protein (assay: ELISA, coated murine CD19).
Procedure, shortened: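 Plates coated overnight at 4° C with recombinant murine or monkey CD19 and blocked with 2% BSA. Chimeric antibodies, serially diluted from 100 nM, bound for 2 h at 37° C. TMB development for 10 min with OD450 read-out.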

| Binder | binding result |
| --- | --- |
| B1 | no binding |
| B2 | no binding |
| B3 | no binding |
| B4 | no binding |
| B5 | no binding |
| B6 | no binding |

These binders were tested against T3, Human CD19-his protein (assay: ELISA, antibody at 10 nM).

| Binder | OD450 |
| --- | --- |
| B1 | 1.94 |
| B2 | 0.96 |
| B3 | 1.87 |
| B4 | 1.72 |
| B5 | 1.76 |
| B6 | 0.61 |

What follows are binders tested against T3, Human CD19-his protein (assay: ELISA, antibody at 100 nM).

| Binder | OD450 |
| --- | --- |
| B1 | 1.9 |
| B2 | 0.88 |
| B3 | 1.62 |
| B4 | 1.64 |
| B5 | 1.93 |
| B6 | 0.68 |

The binders below were run against T3, Human CD19-his protein (assay: ELISA, antibody at 0.01 nM).

| Binder | OD450 |
| --- | --- |
| B1 | 0.29 |
| B2 | 0.17 |
| B3 | 0.12 |
| B4 | 0.11 |
| B5 | 0.38 |
| B6 | 0.07 |

Each binder was assayed against T3, Human CD19-his protein (assay: ELISA, antibody at 0.10 nM).

| Binder | OD450 |
| --- | --- |
| B1 | 1.1 |
| B2 | 0.62 |
| B3 | 0.58 |
| B4 | 0.51 |
| B5 | 1.56 |
| B6 | 0.16 |

The binders below were run against T3, Human CD19-his protein (assay: ELISA, antibody at 1.00 nM).

| Binder | OD450 |
| --- | --- |
| B1 | 1.98 |
| B2 | 0.83 |
| B3 | 1.59 |
| B4 | 1.37 |
| B5 | 1.89 |
| B6 | 0.43 |

These binders were tested against T3, Human CD19-his protein (assay: ELISA, antibody at 0.001 nM).

| Binder | OD450 |
| --- | --- |
| B1 | 0.1 |
| B2 | 0.08 |
| B3 | 0.07 |
| B4 | 0.06 |
| B5 | 0.09 |
| B6 | 0.05 |

Each binder was assayed against T3, Human CD19-his protein (assay: ELISA, antibody at 0.0001 nM).

| Binder | OD450 |
| --- | --- |
| B1 | 0.07 |
| B2 | 0.06 |
| B3 | 0.05 |
| B4 | 0.05 |
| B5 | 0.06 |
| B6 | 0.05 |

Each binder was assayed against T3, Human CD19-his protein (assay: ELISA on coated human CD19-His).

| Binder | EC50 (read off the curve) |
| --- | --- |
| B1 | ~0.07 nM |
| B2 | ~0.05 nM |
| B3 | ~0.2 nM |
| B4 | ~0.3 nM |
| B5 | ~0.03 nM |
| B6 | ~0.5 nM |
